± gives the uncertainty stated by the source.
test: amyloid nucleation score (Sup35N fusion, yeast selection) (log enrichment); library NNK2; higher = more nucleation; inactive = no reads after selection
In short: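 The nucleation score, computed with DiMSum, is the log enrichment of output over input reads, centred on the mode score of non-aggregating sequences. Sequences with under 100 input reads were dropped. Reads were generated by Illumina sequencing of plasmid inserts from psi-negative yeast with Sup35N fused to peptides of 20 random codons, induced with 100 μM copper sulfate for 24 hours and grown 7 days at 30°C on medium lacking adenine and uracil.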

SFKSDSFTDYYLIDLAITRG and SFMGEK are within error of each other in amyloid nucleation score: -0.046 ± 1 for the first, -0.453 ± 0.74 for the second.

SFNEWLSR and SFNVF are within error of each other in amyloid nucleation score: -0.391 ± 0.55 for the first, -0.094 ± 0.6 for the second.

Compared with SFPLSADEFNCSI, SFPVWPVMYGGNCFSCFSLG is higher in amyloid nucleation score: -0.314 ± 0.55 for the first, 9.094 ± 0.063 for the second.

First: SFRFMFEVLSVVTYSTRGCA
Second: SFRKILESWKDAYLYDPALT
The amyloid nucleation score of the first is higher: 2.92 ± 0.067 for the first, 0.113 ± 1.1 for the second.

First: SFSKNALDNRFWGRFSFFFG
Second: SFVLSSHKA
The amyloid nucleation score of the first is higher: 1.3 ± 0.34 for the first, 0.175 ± 0.61 for the second.

First: SGCWIGRFLSSGVSMKVHVS
Second: SGDMCFWFSQTRHGLFKGIL
The amyloid nucleation score of the first is higher: 1.23 ± 0.4 for the first, -0.019 ± 0.37 for the second.

SGHISYG and SGIAWSLVNVGLGYHYMQGG are within error of each other in amyloid nucleation score: 0.192 ± 0.56 for the first, 0.178 ± 0.39 for the second.

Compared with SGKTMEVIYNEGSCFCGFLT, SGLCSCTVACVGFVHFDARV is lower in amyloid nucleation score: 8.09 ± 0.081 for the first, 5.38 ± 0.084 for the second.

Going from SGMISRRHAYGAEVELVGSN to SGPVVQDKVYHRVNYF, the amyloid nucleation score falls from 1.17 ± 0.43 to -0.369 ± 1.1.

First: SGSKGRASVNIIDR
Second: SGSMKCPSYRYYCPQNIFCT
The amyloid nucleation score of the first is lower: 0.131 ± 1 for the first, 6.43 ± 0.08 for the second.

SGSRMFCVRHMIMSGGVLGS and SGTALTRAESSTLMFNRNYR are within error of each other in amyloid nucleation score: -0.451 ± 0.54 for the first, 0.106 ± 0.41 for the second.

Compared with SGVLHRCEIPVLRACRLLL, SGVLVCVWTRS is lower in amyloid nucleation score: 0.425 ± 0.37 for the first, -1.24 ± 0.49 for the second.

SGWQFQSWRVQRMWLVELSC and SGYMMNFAA are within error of each other in amyloid nucleation score: 0.494 ± 0.49 for the first, 1.24 ± 0.32 for the second.

SGYVIHLVDDKALHTCDRNQ and SGYVLNAELNAASLLMCGIG are within error of each other in amyloid nucleation score: 0.294 ± 0.18 for the first, 0.252 ± 0.74 for the second.

First: SHCCGFLRGGWNRAQFGYRT
Second: SHCPVRYMVGIS
The amyloid nucleation score of the first is higher: 3.38 ± 0.049 for the first, -1.02 ± 0.78 for the second.

Compared with SHCSLEDG, SHEMGGFHNSNL is lower in amyloid nucleation score: 1.22 ± 0.12 for the first, -1.56 ± 1 for the second.

Compared with SHFRLCGGVWSSGLMCHGCF, SHGVLRMAKIRSWGFDVTVM is lower in amyloid nucleation score: 1.61 ± 0.55 for the first, 0.02 ± 0.74 for the second.

SHISDVSKD and SHLPVWTSKNARSRCDP are within error of each other in amyloid nucleation score: 0.679 ± 0.26 for the first, 0.602 ± 0.25 for the second.

SHMIRYRSVDRVHGLFHPQS and SHYTMALSRDIGYGDITKSD are within error of each other in amyloid nucleation score: -0.232 ± 0.37 for the first, -0.675 ± 1.1 for the second.

Compared with SICGEVYWWNLG, SIFFARLVVEKSMIQLG is higher in amyloid nucleation score: -0.978 ± 0.28 for the first, 0.21 ± 0.41 for the second.

SIGIRIEVLHAYLQTVISNA and SIGTGRAESL are within error of each other in amyloid nucleation score: -0.639 ± 1 for the first, 0.359 ± 0.57 for the second.

SIKCEFELIDLTSQAPCEGQ and SILIFTLTCSDRNW are within error of each other in amyloid nucleation score: 0.611 ± 0.5 for the first, -0.245 ± 0.76 for the second.

First: SIPIIETGVWYVNNRVLMN
Second: SIRARGLAMRSYSPT
The amyloid nucleation score of the first is lower: -1.43 ± 0.54 for the first, -0.093 ± 0.55 for the second.

Going from SIRLYHYKFALRERKV to SISRVVTWNRLRVKACRWAG, the amyloid nucleation score falls from 5.345 ± 0.053 to 0.601 ± 0.28.

First: SISSGFFWKEAIKGSAVSLW
Second: SIVLMCVLMYPPIDVSSWLS
The amyloid nucleation score of the first is lower: 0.36 ± 0.8 for the first, 4.415 ± 0.042 for the second.

SIYRFDLTYPNRHHCYNVVI and SKAECLMH are within error of each other in amyloid nucleation score: -0.184 ± 1.1 for the first, -0.547 ± 1.1 for the second.

First: SKCCASLTQLITTGVLAYRA
Second: SKFHIVIWSSAFFGCNCRLA
The amyloid nucleation score of the first is lower: 0.489 ± 0.49 for the first, 6.78 ± 0.079 for the second.

SKFYNSYSYFTLFVVVLMFD and SKLFESLVTCLIKGLHVVNN are within error of each other in amyloid nucleation score: -0.936 ± 1.1 for the first, 0.479 ± 0.74 for the second.

Going from SKLIVWLTDLASSVSRMLLV to SKLMQVRRGVLSGYLSESDE, the amyloid nucleation score falls from 4.09 ± 0.071 to -0.149 ± 0.55.

First: SKYKRLYVGTNDIIQLDWSN
Second: SLCLRRCMKNKSKQMTMVWR
The amyloid nucleation score of the first is higher: 3.16 ± 0.068 for the first, -0.247 ± 0.53 for the second.

Compared with SLEFCLVWFSSMRRMCV, SLFARRMWGGTVKWYNDRTY is lower in amyloid nucleation score: 0.673 ± 0.48 for the first, -0.632 ± 0.76 for the second.

Going from SLFTYGVISDHMGNMVPWND to SLKEESFESVMNVG, the amyloid nucleation score rises from -0.352 ± 1.1 to 3.87 ± 0.059.

Going from SLKRKGLVHTPCIFRVRCLT to SLLDWYKSRQSLMGAMLHNC, the amyloid nucleation score falls from 0.554 ± 0.81 to -1.12 ± 0.44.

Compared with SLLSPHPLD, SLLYQQDGCNLVVFYQFLV is higher in amyloid nucleation score: 0.203 ± 0.63 for the first, 2.52 ± 0.13 for the second.

Compared with SLMKKTAGLFNVYVPSIGSS, SLNILDCFTCGYMTSDISVA is lower in amyloid nucleation score: 0.378 ± 0.37 for the first, -0.674 ± 0.32 for the second.

First: SLPRWTVCVCVQADGYWMWV
Second: SLQVDRNWGGS
The amyloid nucleation score of the first is higher: 7.12 ± 0.084 for the first, 0.105 ± 0.55 for the second.

Compared with SLSFCVLEVSTCGCMSGYVG, SLSSGHETVR is lower in amyloid nucleation score: 10.24 ± 0.05 for the first, 3.69 ± 0.15 for the second.

First: SLSVAWKWGGRSDN
Second: SLVLLNRSANWIDLLNKQQD
The amyloid nucleation score of the first is higher: 6.213 ± 0.06 for the first, 3.62 ± 0.12 for the second.

SLWLSEVVCMDTVHQEIIMA gave an amyloid nucleation score of -0.163 ± 0.42.

For SFVNFCRLRASLCAVAISTT, the amyloid nucleation score was “inactive”.
With SFYWYRCVDIADSTSKYDGF the amyloid nucleation score was “inactive”.
In the case of SGFNNISMKQLWWT, the amyloid nucleation score is reported as “inactive”.
With SGGHNIVLMI the amyloid nucleation score was “inactive”.
For SIIIVKFLIGWRILWRSLTY, the amyloid nucleation score was “inactive”.
For SINWAFDYVSVLVGFD, the amyloid nucleation score was “inactive”.
For SIRSS, the amyloid nucleation score was “inactive”.
With SKCNGFVVALMLVFTSSELD the amyloid nucleation score was “inactive”.
With SLSGVV the amyloid nucleation score was “inactive”.

— the supplement of paper PMC12042874
